For experiment [1], the target named is Biotin-GCN4 peptide (yeast). As to the kind of experiment: SPR, Biacore 3000, 25 C; Biotin-GCN4 peptide captured on immobilised streptavidin (CM5), Fab-scFv injected in three-fold dilutions from 30 nM, 1:1 binding model.
In experiment [2] the target is Biotin-GCN4 peptide (yeast). As to the kind of experiment: SPR (Biacore 3000, 25 C): Biotin-GCN4 peptide captured on immobilised streptavidin (CM5 chip), Fab-scFv injected as analyte, 1:1 binding model.

B1: Fab A-scFv '52SR4' (protein, part only; not given: Fab A heavy and light chains, not shown: another chain or arm of the molecule; a dimerising Fc or GST; small tags and cut ends)
scFv: DAVVTQESALTSSPGETVTLTCRSSTGAVTTSNYASWVQEKPDHLFTGLIGGTNNRAPGVPARFSGSLIGDKAALTITGAQTEDEAIYFCVLWYSDHWVFGCGTKLTVLGGGGGSGGGGSGGGGSGGGGSDVQLQQSGPGLVAPSQSLSITCTVSGFLLTDYGVNWVRQSPGKCLEWLGVIWGDGITDYNSALKSRLSVTKDNSKSQVFLKMNSLQSGDSARYYCVTGLFDYWGQGTTLTVSSAAAHHHHHHEQKLISEEDL
In experiment [1], B1 returned a Kd of 0.516 nM. Also, in experiment [2], the dissociation rate constant (koff) stood at 0.00027 s⁻¹ and the kon is 510000 M⁻¹ s⁻¹.
